Results on six molecules are retold here after publication PMC5333127, “RD26 mediates crosstalk between drought and brassinosteroid signalling pathways” (Nature Communications, 2017).

One data set addresses T1, RD26 (ANAC072) (Arabidopsis thaliana, UniProt Q93VY3 1-297).
T1 sequence: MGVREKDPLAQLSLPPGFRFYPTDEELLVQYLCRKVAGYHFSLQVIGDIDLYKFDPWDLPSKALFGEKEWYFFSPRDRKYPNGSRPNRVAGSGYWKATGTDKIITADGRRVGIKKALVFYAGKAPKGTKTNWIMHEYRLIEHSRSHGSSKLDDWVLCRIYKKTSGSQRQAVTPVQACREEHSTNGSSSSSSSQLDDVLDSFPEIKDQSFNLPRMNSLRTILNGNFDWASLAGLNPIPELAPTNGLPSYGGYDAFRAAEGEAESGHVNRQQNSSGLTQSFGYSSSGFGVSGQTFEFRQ
Briefly: EMSA; 25 mM HEPES-KOH pH 8.0, 1 mM DTT, 50 mM KCl, 10% glycerol, 20 μl, about 0.2 ng probe, 40 min on ice; 5% native PAGE in 1x TGE. To be noted: protein: recombinant; chain copies: 2; label: 32P 5' end; blunt.

Data set [1] concerns the target T2, BES1;RD26 (ANAC072) (Arabidopsis thaliana;Arabidopsis …, UniProt Q9LN63;Q93VY3 1-335;1-297, |). Described as above. To be noted: protein: recombinant;recombinant; copies: 1;1; label: 32P 5' end; blunt.
A further data set concerns the target BES1 (Arabidopsis thaliana, UniProt Q9LN63 1-335). The description is as above. To be noted: protein: recombinant; chain copies: 2; label: 32P 5' end; blunt.
In data set [2] the target is T2, BES1;RD26 (ANAC072). Kind of data set: EMSA; synergistic; proposed heterodimer; 25 mM HEPES-KOH pH 8.0, 1 mM DTT, 50 mM KCl, 10% glycerol, 20 μl, about 0.2 ng probe, 40 min on ice; 5% native PAGE in 1x TGE. The conditions noted are these: protein: recombinant;recombinant; copies: 1;1; label: 32P 5' end; blunt.
For data set [3], the target named is T3, GST-tagged RD26 DNA-binding/dimerization domain (aa 1-140) (Arabidopsis, UniProt Q93VY3 1-140).
T3 construct: also called RD26 (1-140); source: recombinant protein, purified; pET-42a (Novagen)
T3 sequence (looked up): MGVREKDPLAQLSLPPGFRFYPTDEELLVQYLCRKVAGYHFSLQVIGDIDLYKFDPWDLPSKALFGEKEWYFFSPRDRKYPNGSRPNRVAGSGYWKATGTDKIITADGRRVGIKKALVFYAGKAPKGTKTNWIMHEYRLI
Kind of data set: pull-down; GST pull-down; GST-tagged RD26 (full length or 1-140) or GST as bait, MBP-tagged BES1 (full length or 1-89) as prey; MBP-BES1 detected by anti-MBP antibody; 20% input shown. The conditions noted are these: both partners purified.

In data set [4] the target is T2, BES1;RD26 (ANAC072). Kind of data set: EMSA; stronger than either protein alone; proposed heterodimer; 25 mM HEPES-KOH pH 8.0, 1 mM DTT, 50 mM KCl, 10% glycerol, 20 μl, about 0.2 ng probe, 40 min on ice; 5% native PAGE in 1x TGE. To be noted: protein: recombinant;recombinant; copies: 1;1; label: 32P 5' end; blunt.
The target of data set [5] is T4, MBP-BES1, full-length BES1 (BRI1 EMS SUPPRESSOR 1) (Arabidopsis, UniProt Q9LN63 1-335).
T4 construct: BES1 (BRI1 EMS SUPPRESSOR 1), BES1/BZR1 family transcription factor of Arabidopsis, full length; also called BES1 FL; source: recombinant protein, purified; pETMALc-H
T4 sequence (looked up): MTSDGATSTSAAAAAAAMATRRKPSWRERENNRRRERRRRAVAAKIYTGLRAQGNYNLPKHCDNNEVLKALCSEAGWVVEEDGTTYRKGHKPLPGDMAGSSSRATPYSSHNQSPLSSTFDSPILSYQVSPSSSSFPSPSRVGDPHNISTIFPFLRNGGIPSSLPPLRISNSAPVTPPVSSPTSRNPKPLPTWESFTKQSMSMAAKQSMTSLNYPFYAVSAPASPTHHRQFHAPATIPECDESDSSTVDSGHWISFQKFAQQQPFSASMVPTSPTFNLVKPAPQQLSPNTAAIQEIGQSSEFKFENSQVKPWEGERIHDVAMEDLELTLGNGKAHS
Briefly: pull-down; GST pull-down; GST-tagged RD26 (full length or 1-140) or GST as bait, MBP-tagged BES1 (full length or 1-89) as prey; MBP-BES1 detected by anti-MBP antibody; 20% input shown. To be noted: both partners purified.

B1: At4g18010 BRRE MU (dsDNA)
DNA 1: AAACCGAAAACATTTTTTAGAAAGAAGAAA
DNA 2: TTTCTTCTTTCTAAAAAATGTTTTCGGTTT
As to B1, the binding result with RD26 (ANAC072), with BES1;RD26 (ANAC072) [1] and in the data set with BES1 was “no binding” each time.

B2: At4g00360 E-box WT (dsDNA)
DNA 1: ATTACCTAACTATACATGTGTAATGTGTTC
DNA 2: GAACACATTACACATGTATAGTTAGGTAAT
Consider B2, for which the binding result with RD26 (ANAC072), in the data set with BES1 and with BES1;RD26 (ANAC072) [2] was “binds” each time.

B3: MBP-tagged BES1 DNA-binding/dimerization domain (aa 1-89) (domain or fragment, Arabidopsis, UniProt Q9LN63 1-89, looked up)
chain: MTSDGATSTSAAAAAAAMATRRKPSWRERENNRRRERRRRAVAAKIYTGLRAQGNYNLPKHCDNNEVLKALCSEAGWVVEEDGTTYRKG
notes: also called BES1 (1-89); source: recombinant protein, purified; pETMALc-H
On to B3, for which the binding result in data set [3] is on record as “binds”.

B4: At4g00360 E-box MU (dsDNA)
DNA 1: ATTACCTAACTATAAAAAAATAATGTGTTC
DNA 2: GAACACATTATTTTTTTATAGTTAGGTAAT
As for B4, the binding result with BES1;RD26 (ANAC072) [1] is reported as “no binding”.

B5: At4g18010 BRRE WT (dsDNA)
DNA 1: AAACCGAAAACACGTGTGAGAAAGAAGAAA
DNA 2: TTTCTTCTTTCTCACACGTGTTTTCGGTTT
B5: the binding result with BES1 and with BES1;RD26 (ANAC072) [4] was “binds” in each case.

B6: GST-RD26, full-length RD26 (RESPONSIVE TO …ON 26) (natural protein, Arabidopsis, UniProt Q93VY3 1-297, looked up)
chain: MGVREKDPLAQLSLPPGFRFYPTDEELLVQYLCRKVAGYHFSLQVIGDIDLYKFDPWDLPSKALFGEKEWYFFSPRDRKYPNGSRPNRVAGSGYWKATGTDKIITADGRRVGIKKALVFYAGKAPKGTKTNWIMHEYRLIEHSRSHGSSKLDDWVLCRIYKKTSGSQRQAVTPVQACREEHSTNGSSSSSSSQLDDVLDSFPEIKDQSFNLPRMNSLRTILNGNFDWASLAGLNPIPELAPTNGLPSYGGYDAFRAAEGEAESGHVNRQQNSSGLTQSFGYSSSGFGVSGQTFEFRQ
notes: RD26 (ANAC072), NAC family transcription factor of Arabidopsis, full length; also called ANAC072; RD26 FL; source: recombinant protein, purified; pET-42a (Novagen)
For B6, the binding result in data set [5] is given as “binds”.
